Values of other authors as cited in paper PMC3295331.

Molecular target: Cav3.1 (UniProt O54898)
UniProt O54898, sequence (O54898 whole entry): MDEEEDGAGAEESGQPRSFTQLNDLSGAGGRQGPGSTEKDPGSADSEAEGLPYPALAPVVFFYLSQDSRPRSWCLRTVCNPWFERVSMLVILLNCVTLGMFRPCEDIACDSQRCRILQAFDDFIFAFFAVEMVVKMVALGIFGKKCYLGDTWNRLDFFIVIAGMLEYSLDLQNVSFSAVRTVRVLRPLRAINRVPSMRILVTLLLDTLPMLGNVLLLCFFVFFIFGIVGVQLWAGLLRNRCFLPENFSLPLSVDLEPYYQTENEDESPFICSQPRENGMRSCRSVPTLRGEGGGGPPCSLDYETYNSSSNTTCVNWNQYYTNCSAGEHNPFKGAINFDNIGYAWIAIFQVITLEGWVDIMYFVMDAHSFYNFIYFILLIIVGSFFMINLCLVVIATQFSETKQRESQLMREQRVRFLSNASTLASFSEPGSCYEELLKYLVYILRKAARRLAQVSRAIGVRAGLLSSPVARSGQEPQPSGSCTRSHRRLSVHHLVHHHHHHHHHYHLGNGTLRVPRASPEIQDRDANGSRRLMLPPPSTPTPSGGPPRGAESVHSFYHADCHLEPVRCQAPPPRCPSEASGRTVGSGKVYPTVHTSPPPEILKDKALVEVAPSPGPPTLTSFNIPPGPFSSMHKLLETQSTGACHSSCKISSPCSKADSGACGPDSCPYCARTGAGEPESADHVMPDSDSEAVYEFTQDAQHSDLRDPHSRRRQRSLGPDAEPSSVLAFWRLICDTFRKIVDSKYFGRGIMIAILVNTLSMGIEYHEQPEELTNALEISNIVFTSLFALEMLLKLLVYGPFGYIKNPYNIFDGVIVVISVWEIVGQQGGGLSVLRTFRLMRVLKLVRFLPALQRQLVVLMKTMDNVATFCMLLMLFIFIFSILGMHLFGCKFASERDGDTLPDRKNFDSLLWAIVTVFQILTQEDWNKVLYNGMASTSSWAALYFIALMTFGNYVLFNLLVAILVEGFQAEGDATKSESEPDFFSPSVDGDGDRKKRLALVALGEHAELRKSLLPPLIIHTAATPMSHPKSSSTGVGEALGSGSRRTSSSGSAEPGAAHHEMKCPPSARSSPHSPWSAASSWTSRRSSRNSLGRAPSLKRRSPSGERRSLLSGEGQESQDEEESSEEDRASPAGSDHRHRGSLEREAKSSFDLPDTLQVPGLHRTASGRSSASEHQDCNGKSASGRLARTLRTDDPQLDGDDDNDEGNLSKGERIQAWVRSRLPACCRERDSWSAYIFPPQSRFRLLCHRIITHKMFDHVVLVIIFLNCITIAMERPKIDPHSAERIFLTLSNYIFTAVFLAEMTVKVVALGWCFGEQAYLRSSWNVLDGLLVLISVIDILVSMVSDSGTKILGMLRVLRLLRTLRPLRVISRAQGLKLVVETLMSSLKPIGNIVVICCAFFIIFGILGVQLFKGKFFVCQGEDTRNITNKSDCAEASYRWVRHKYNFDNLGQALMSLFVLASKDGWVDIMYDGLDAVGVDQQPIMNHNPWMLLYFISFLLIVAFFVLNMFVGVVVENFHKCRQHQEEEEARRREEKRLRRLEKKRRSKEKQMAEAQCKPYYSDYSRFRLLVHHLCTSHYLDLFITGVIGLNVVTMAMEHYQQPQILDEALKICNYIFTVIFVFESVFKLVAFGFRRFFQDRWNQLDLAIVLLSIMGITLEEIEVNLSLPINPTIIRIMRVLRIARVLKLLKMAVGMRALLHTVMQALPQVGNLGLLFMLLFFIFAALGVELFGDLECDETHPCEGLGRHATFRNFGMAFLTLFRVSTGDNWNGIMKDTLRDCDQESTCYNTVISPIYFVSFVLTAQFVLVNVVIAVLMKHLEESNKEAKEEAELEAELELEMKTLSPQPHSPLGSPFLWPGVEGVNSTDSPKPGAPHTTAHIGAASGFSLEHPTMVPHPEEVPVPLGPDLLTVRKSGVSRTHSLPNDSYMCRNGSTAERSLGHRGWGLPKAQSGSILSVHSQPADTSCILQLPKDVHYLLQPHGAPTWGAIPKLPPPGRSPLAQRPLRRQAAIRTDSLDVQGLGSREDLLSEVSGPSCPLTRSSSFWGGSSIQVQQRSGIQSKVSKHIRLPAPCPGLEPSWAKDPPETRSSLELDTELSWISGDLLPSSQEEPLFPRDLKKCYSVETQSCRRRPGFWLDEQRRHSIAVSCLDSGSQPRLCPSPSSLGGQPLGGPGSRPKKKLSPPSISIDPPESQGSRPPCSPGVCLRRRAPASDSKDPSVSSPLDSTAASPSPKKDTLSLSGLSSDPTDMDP

**Q.** Which Kd does the source give for Kurtoxin (from UniProt P58910) here?
**A.** The Kd was 15 nM.
